Experimental data taken from patent US20020098527A1 (Kyowa Kirin, published 2002).
Values belong to the binder of their own block, whether it stands above or below them.

Key:
[1] = biological target: T1, hCCR4 partial peptide (Compound 1) (human, conjugated with thyroglobulin (THY) using SMCC as the crosslinking agent); experiment: ELISA on plate-coated hCCR4 partial peptide conjugate
T1 construct: Synthetic peptide, coated on ELISA plates as a THY conjugate
T1 peptide: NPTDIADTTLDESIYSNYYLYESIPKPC

[2] = biological target: T2, human CC chemokine receptor 4 (human CCR4) (human, UniProt P51679 1-360); experiment: flow cytometry (immunofluorescent method) on hCCR4-high-expressing EL-4 cells
T2 construct: Expressed on mouse EL-4 cells transfected with hCCR4 DNA (CCR4/EL-4); also called hCCR4; K5-5
T2 sequence: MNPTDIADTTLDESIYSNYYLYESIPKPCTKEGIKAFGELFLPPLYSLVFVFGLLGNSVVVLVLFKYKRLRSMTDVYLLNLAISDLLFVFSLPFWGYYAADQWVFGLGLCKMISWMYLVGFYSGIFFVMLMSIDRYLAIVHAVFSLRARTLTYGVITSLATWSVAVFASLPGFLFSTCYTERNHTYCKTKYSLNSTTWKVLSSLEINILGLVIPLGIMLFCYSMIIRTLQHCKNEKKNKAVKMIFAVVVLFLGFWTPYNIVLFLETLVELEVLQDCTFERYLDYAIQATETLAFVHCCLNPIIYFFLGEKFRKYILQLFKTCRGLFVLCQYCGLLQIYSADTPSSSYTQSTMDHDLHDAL
Procedure: They were selected by an immunofluorescent method using KM2160 prepared in Example 1(5). Into a 96 well U shape plate, 2×10⁵ cells of each of selected several tens of the gene-introduced clones was dispensed. KM2160 labeled with biotin by a known method (Enzyme Antibody Method, published by Gakusai Kikaku) was diluted to 5 μg/ml with a buffer for FACS (1% BSA-PBS, 0.02% EDTA, 0.05% NaN₃, pH 7.4), human IgG (manufactured by Welfide) was diluted to 3.75 mg/ml to prevent nonspecific staining, each of the thus diluted antibody solution was dispensed at 200 μl/well, and the mixture was allowed to react in ice for 30 minutes. As a negative control, biotinylated anti-IL-5R antibody (WO 97/10354) was used at the same concentration. After washing twice with 200 μl/well of the buffer, streptoavidin-PE (manufactured by Becton Dickinson Japan) was dispensed at 20 μl/well. Thirty minutes after the reaction in ice in the dark, the cells were washed three times with 200 μl/well and finally suspended to 500 μl, and the fluorescence intensity was measured by a flow cytometer to select one cell line having the highest fluorescence intensity.
Reactivity of the purified anti-CCR4 chimeric antibody KM2760 with the hCCR4-high-expressing cell (hereinafter referred to as “CCR4/EL-4”) produced in 3(4) of Example 2 was measured in the same manner as in 3(4) of Example 2.

[3] = biological target: T3, mCCR4 partial peptide (Compound 2) (mouse, conjugated with thyroglobulin (THY) using SMCC as the crosslinking agent); experiment: ELISA, THY-peptide conjugate coated at 10 µg/ml, antibody concentration varied
T3 construct: Synthetic peptide, coated on ELISA plates as a THY conjugate
T3 peptide: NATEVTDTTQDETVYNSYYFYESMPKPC
Procedure: (§1) The conjugate prepared in the above manner was dispensed at 10 μg/ml and 50 μl/well into a 96 well plate for EIA (manufactured by Greiner) and adhered thereto by incubating it at 4° C. overnight. After washing with PBS, 1% BSA-containing PBS (hereinafter referred to as “1% BSA-PBS”) was added at 100 μl/well, and the mixture was allowed to react at room temperature for 1 hour to block the remaining active groups. After removing 1% BSA-PBS, diluted solutions of a transformant culture supernatant, a purified mouse antibody or a purified human chimeric antibody was dispensed at 50 μl/well, and the mixture was allowed to react at room temperature for 1 hour. […] After the reaction, each well was washed with Tween-PBS, ABTS solution (a solution prepared by dissolving 0.55 g of 2,2′-azino-bis(3-ethylbenzothiazoline-6-sulfonic acid)ammonium in 1 liter of 0.1 M citrate buffer (pH 4.2), and adding 1 μl/ml of hydrogen peroxide just before use) was dispensed at 50 μl/well for color developing, and the absorbance at 415 nm (hereinafter referred to as “OD₄₁₅”) was measured.
(§2) Reactivity of the purified anti-CCR4 chimeric antibody KM2760 to human CCR4 and mouse CCR4 was measured by ELISA shown in 2(3) of Example 2. […]

[4] = biological target: T1, hCCR4 partial peptide (Compound 1); experiment: as above
Procedure: as §1, §2

binding result [1]: binds
B1: mouse anti-CCR4 monoclonal antibody KM2160 (antibody, mouse IgG1, V domains shown)
VH: EVQLVESGGDLMKPGGSLKISCAASGFIFSNYGMSWVRQTPDMRLEWVATISSASTYSYYPDSVKGRFTISRDNAENSLYLQMNSLRSEDTGIYYCGRHSDGNFAFGYWGRGTLVTVSA
VL: DVLMTQTPLSLPVSLGDQASISCRSSRNIVHINGDTYLEWYLQRPGQSPKLLIYKVSNRFSGVPDRFSGSGSGTDFTLKISRVEAEDLGVYYCFQGSLLPWTFGGGTRLEIRR
notes: Mouse IgG1 class with a kappa L chain, produced by hybridoma KM2160; also called anti-CCR4 mouse antibody KM2160

binding result [2]: binds | binding result [3]: binds | binding result [4]: binds
B2: anti-CCR4 chimeric antibody KM2760 (antibody, V domains shown)
VH: B1 VH
VL: B1 VL
notes: Human chimeric antibody: CH is human IgG1 subclass and CL is human kappa class (vector pKANTEX93); It was expressed in rat YB2/0 cells; It was used biotinylated in the flow cytometry assays
